# According to doi:10.1101/2025.09.10.672744, “UDP-glucose Activation of a G-protein/Sucrose Synthase Signaling Supercomplex” (bioRxiv, 2025):
# What was measured:
# His-SUS1 = target: T1, His-SUS1 (Arabidopsis, UniProt P49040 1-808); assay: MST; sfGFP-RGS1(ΔC-tail) as the fluorescent target, His-SUS1 or His-SUS4 as ligands; NanoTemper Monolith NT.115; details: both partners purified
# T1 construct: Gateway pDEST17 adds linker residues between the His tag and the protein; also called SUCROSE SYNTHASE 1; source: E. coli ArcticExpress RP, purified (Ni-NTA, Superdex 200 SEC); not shown: 6xHis, N-terminal, kept
# T1 sequence (P49040 whole entry): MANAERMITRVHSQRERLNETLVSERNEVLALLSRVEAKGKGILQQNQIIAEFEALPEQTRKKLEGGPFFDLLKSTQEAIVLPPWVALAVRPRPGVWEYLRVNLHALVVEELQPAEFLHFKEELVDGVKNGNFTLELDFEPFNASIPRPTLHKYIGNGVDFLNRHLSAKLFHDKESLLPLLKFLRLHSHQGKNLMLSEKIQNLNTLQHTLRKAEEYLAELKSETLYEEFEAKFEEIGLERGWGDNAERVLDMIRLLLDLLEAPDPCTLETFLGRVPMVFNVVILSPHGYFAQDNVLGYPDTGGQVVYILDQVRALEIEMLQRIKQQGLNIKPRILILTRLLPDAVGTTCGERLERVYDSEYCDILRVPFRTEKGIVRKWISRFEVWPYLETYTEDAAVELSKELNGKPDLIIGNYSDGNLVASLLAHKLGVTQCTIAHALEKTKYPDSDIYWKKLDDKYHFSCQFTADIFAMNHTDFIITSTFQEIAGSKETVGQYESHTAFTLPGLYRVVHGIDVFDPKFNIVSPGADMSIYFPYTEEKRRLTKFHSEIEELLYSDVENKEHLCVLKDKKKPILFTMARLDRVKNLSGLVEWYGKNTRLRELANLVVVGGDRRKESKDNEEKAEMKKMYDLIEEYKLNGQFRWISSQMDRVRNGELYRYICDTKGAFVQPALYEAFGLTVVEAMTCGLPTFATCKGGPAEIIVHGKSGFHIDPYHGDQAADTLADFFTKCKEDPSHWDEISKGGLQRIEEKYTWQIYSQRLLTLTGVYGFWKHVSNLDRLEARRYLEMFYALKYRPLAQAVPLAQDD
# His-SUS4 = target: T2, His-SUS4 (Arabidopsis, UniProt Q9LXL5 1-808); assay: as above; details: both partners purified
# T2 construct: Gateway pDEST17 adds linker residues between the His tag and the protein; also called SUCROSE SYNTHASE 4; source: E. coli ArcticExpress RP, purified (Ni-NTA, Superdex 200 SEC); not shown: 6xHis, N-terminal, kept
# T2 sequence (Q9LXL5 whole entry): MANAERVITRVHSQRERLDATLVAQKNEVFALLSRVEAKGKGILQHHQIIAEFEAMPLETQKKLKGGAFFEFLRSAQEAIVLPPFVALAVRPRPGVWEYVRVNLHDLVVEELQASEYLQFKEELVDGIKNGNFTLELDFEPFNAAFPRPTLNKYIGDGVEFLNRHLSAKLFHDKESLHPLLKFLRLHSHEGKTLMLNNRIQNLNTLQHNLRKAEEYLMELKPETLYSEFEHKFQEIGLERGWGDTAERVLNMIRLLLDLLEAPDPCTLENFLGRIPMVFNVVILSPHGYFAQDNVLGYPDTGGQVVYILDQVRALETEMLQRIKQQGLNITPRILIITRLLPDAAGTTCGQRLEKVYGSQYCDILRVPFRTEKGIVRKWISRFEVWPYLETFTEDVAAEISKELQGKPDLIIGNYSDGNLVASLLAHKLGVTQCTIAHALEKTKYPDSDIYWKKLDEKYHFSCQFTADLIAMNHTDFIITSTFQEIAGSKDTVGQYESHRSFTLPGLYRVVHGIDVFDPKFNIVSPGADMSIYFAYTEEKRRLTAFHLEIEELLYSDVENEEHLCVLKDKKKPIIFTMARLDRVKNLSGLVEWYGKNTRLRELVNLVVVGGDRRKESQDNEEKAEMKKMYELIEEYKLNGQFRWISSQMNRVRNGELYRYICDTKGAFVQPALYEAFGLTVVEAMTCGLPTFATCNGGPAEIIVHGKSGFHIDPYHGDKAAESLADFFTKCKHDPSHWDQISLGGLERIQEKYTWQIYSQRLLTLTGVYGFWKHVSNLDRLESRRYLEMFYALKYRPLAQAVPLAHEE
binder,measurement,setting,value
HA–Flag–10xHis–sfGFP–TEV–Optimized–RGS1(ΔC-tail) (domain or fragment) MASGCALHGGCPSDYVAVAISVICFFVLLSRSVLPCLIHKAPRTNSSSFWIPVIQVISSFNLLFSIMMSVNLLRFRTKHWWRYCYLWAVWIEGPLGFGLLMSCRITQAFQLYFIFVKKRLPPVKSYIFLPLVLLPWIFGAAIIHATKPLNDKCHMGLQWTFPVAGLHALYVLALIAFTRAVRHVEFRFDELRDLWKGILVSATSIVIWVTAFVLNEIHEEISWLQVASRFVLLVTGGILVVVFFSISSNQPLLSQISLKKRQNFEFQRMGQALGIPDSGLLFRKEEFRPVDPNEPLDKLLLNKRFRHSFMEFADSCYAGETLHFFEEVYEHGKIPEDDSIRRIYMARHIMEKFIVAGAEMELNLSHKTRQEILTTQDLTHTDLFKNALNEVMQLIKMNLVRDYWSSIYFIKFKEEESCHEAMHKEGY,Kd,His-SUS1,161 ± 9 nM
same,Kd,His-SUS4,106 ± 3 nM
